Measurements from patent US20100143940A1, “(3R)-HYDROXYACYL-ACP DEHYDRATASE ENZYMES USED IN THE BIOSYNTHESIS OF MYCOLIC ACIDS AND USE OF SAME FOR SCREENING ANTIBIOTICS” (priority 2007, published 2010).

Biological target: T1, 2-trans-octenoyl-ACP, P0A6A8
T1 chain: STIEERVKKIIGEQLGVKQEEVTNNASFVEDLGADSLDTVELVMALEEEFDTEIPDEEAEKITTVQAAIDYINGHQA

B1: Rv0636 protein of M. tuberculosis H37Rv fused with the N-terminal polyhistidine tag (protein)
chain: HHHHHHMALREFSSVKVGDQLPEKTYPLTRQDLVNYAGVSGDLNPIHWDDEIAKVVGLDTAIAHGMLTMGIGGGYVTSWVGDPGAVTEYNVRFTAVVPVPNDGKGAELVFNGRVKSVDPESKSVTIALTATTGGKKIFGRAIASAKLA
- specific activity (hydration followed at 263 nm), 2 µM substrate, 311 nM enzyme: no activity of the Rv0636 homodimer could be detected in the presence of octenoyl-ACP
